Legend:
DrRecG-WD WT = biological target: T1, DrRecG-WD WT (Deinococcus radiodurans R1, UniProt Q9RT50 158-235); test: EMSA; 100 nM HJ; near saturation at 160 nM protein; 5 mM EDTA; 50 mM Tris-HCl pH 8.0, 5 mM EDTA, 1 mM DTT, 100 ug/ml BSA, 6% glycerol, on ice 15 min; 100 nM HJ; 6% polyacrylamide gel at room temperature; details: protein: recombinant; tags: MBP (N-terminal fusion, pMAL-c2x); four-way junction of 4 strands, 1 copy each
T1 sequence: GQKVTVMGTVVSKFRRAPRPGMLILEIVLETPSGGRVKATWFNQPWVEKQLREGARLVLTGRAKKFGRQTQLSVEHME

EcRecG-WD QPW = biological target: T2, EcRecG-WD QPW (Escherichia coli MG1655, UniProt P24230 59-135, F99Q;S100P;A101W); test: EMSA; 100 nM HJ; significantly increased vs EcRecG-WD WT; 5 mM EDTA; 50 mM Tris-HCl pH 8.0, 5 mM EDTA, 1 mM DTT, 100 ug/ml BSA, 6% glycerol, on ice 15 min; 100 nM HJ; 6% polyacrylamide gel at room temperature; details: protein: recombinant; tags: MBP (N-terminal fusion, pMAL-c2x); four-way junction of 4 strands, 1 copy each
T2 sequence: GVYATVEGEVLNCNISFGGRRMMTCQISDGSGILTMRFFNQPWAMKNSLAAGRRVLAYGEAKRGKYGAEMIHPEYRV

B1: Holliday junction (oligos 1-4) (structured_DNA)
DNA 1: GTCGGATCCTCTAGACAGCTCCATGATCACTGGCACTGGTAGAATTCGGC
DNA 2: CAACGTCATAGACGATTACATTGCTACATGGAGCTGTCTAGAGGATCCGA
DNA 3: TGCCGAATTCTACCAGTGCCAGTGATGGACATCTTTGCCACGTTGACCC
DNA 4: TGGGTCAACGTGGGCAAGATGTCCTAGCAATGTAATCGTCTATGACGT
- binding result (DrRecG-WD WT): binds
- binding result (EcRecG-WD QPW): binds

— article PMC7889586, “Effects of Conserved Wedge Domain Residues on DNA Binding Activity of Deinococcus radiodurans RecG Helicase”
